The nanobody polyreactivity screen of Harvey et al. (2022)

Assay: yeast display, Sf9 membrane polyspecificity reagent, FACS + sequencing; frameworks hold sequencing errors
Summary of the method: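 A nanobody's polyreactivity label depends on the gate it was sorted from. Yeast display cells were stained with 10% biotinylated, detergent-solubilized Sf9 membrane reagent for 1 hour at 4 °C, enriched on streptavidin microbeads and sorted by FACS. The low and high (top ~1%) gates were set on anti-HA fluorescence for expression and streptavidin fluorescence for reagent binding.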

Sequence	polyreactivity (PSR sort gate)
QVQLVESGGGLVQAGGSLRLSCAATGITFYPNDMGWYRQAPGKERELVAAITTNDGDTYYADSVKGRFTISRDNAKNTVYLQMNSLKPEDTAVYYCAADSGSTSEYEYWGQGTQVTVSS	low polyreactivity
QVQLVESGGGLVQAGGSLRLSCAATGLIFSRNAMGWYRQAPGKERELVAAISTGGSTYYADSVKGRFTISRDNAKITVYLQMNSLKPEDTAVYYCAAAPGYIYEYWGQGTQVTVSS	low polyreactivity
QVQLVESGGGLVQAGGSLRLSCAATGLIIPFSAMGWDREPPGKDRDLVAAISWSAGSTYYADSVKGRFTISRDNAKNSVYLHMNSLKPEDTAVYYCATDRNPADFYWGQGTQVTVSS	low polyreactivity
QVQLVESGGGLVQAGGSLRLSCAATGNTFLWYARGWYRQAPGKERELVAAITWSGGRTYYADSVKGRFTISRDNALYTVYLQMHSLKPEDTAVYYFAADYGYFLGGVYFHKVKFDYWGQGTQVTVSS	high polyreactivity
QVQLVESGGGLVQAGGSLRLSCAATGRIFQRNAMGWYRQAPGKERELVAVISKSGGSTYYADSVKGRFTISRDNAKNTVYLQMNSLKPEDTAVYYCATRYFRPGEKYDYWGQGTQVTVSS	low polyreactivity
QVQLVESGGGLVQAGGSLRLSCAATGRTFRIYAMGWYRQAPGKEREFVAAITWSGGRTYYADSVKGRFTISRDNAKNTVYLQMNSLKPEDTAVYYCAADPTYLRTLRFGSYDYWGQGTQVTVSS	high polyreactivity
QVQLVESGGGLVQAGGSLRLSCAATGRTFRPYAMGWYTQAPGKEREMVDAIDSSGTSTYYADSVKGRFTISRDNAKKTVYLQMNSQKPEDTAVYYCAKAWPDHWYSRYDYWGQGTQVTVSS	low polyreactivity
QVQLVESGGGLVQAGGSLRLSCAATGRTFSTYAMGWYRQAPGKERELVAAISSGGGRTYYADSVKGRFTISRDNAKNTVYLQMNSLKPEDTAVYYCAADFLWYIYIIGTSLEFDYWGQGTQVTVSS	low polyreactivity
QVQLVESGGGLVQAGGSLRLSCAATGSIFASYAMGWYRQAPGKERELVASITRVDSTNYADSVKGRFTISRDNAKNTVYLQMNSLKPEDTAVYYCAADYYIVLTKSDGLFGSWGQGTQVTVSS	low polyreactivity
QVQLVESGGGLVQAGGSLRLSCAATGSIFDYNAMGWYTQAPGKERELVAALTSGGSTNYADSVKGRFTISRDNAMNTVYLQMNSLKPEDTAVYYCAADHDYYPSNLDYWGQGTQVTVSS	low polyreactivity
QVQLVESGGGLVQAGGSLRLSCAATGSIFYAYAMGWYRQAPGKERELVAGISGGGSTNYADSVKGRFTISRDNAKNTVYLQMNSLKPEDTAVYYCAADGWLSATYDGLPDSDSWGQGTQVTVSS	high polyreactivity
QVQLVESGGGLVQAGGSLRLSCAATGSIFYQNAMGWYRQAPGKDRELVAAISSRGGRTYYADSVKGRFTISRDNAKNTVYLQMNSLKTEDTAVYYFNAARFPYSKDYDYWGQGNQVTVSS	high polyreactivity
QVQLVESGGGLVQAGGSLRLSCAATGSNFGSNAMGWYRQAPGKEMELVAAITESGGDTYYADSVKGRFTISRDNAKNTVYLQMNSLKPEDSAVFYCAARYFGGIVDVSLFREYGSWGQGTQVTVSS	low polyreactivity
QVQLVESGGGLVQAGGSLRLSCAATGSTFASYAMGWYIQAPGKERELVAAITNGGSTNYADSVKGRFTISRDNAKNNVYLQMNSLNPEDTAVYYCAAYDGFPRRYDYWGQGTQVTVSS	low polyreactivity
QVQLVESGGGLVQAGGSLRLSCAATGSTFGYYAMGWYRQSPGKERELVAAISRSGTSTYYADSVKGRFTISRDNAKNTVYLQMISLKPEDTAVYYCIRYGFNSQDYWGQGTQVTVSS	high polyreactivity
QVQLVESGGGLVQAGGSLRLSCAATGSTFWPYAMGWYRQAPGKERELVAAIRVIGGSTYYADSVKGRFTISRDNAKNTVYLQMNSLKPEDTAVYYCNAYRPGGARFYARYRYDYCGQGTQVTVSS	low polyreactivity

Sequence	polyreactivity (PSR sort gate)
QVQLVESGGGLVQAGGSLRLSCAATGSTFWQYVMGWYRQAPGKERELVAAISYSGGSTYYADSVKGRFTISRDNAKNTVYLQMNSLKPEDTAVYYCATRGYRWSVFDYWGQGTQVTVSS	high polyreactivity
QVQLVESGGGLVQAGGSLRLSCAATGTTFGYYTMGWYRQAPGKERELDAAISWSGSSTYYADSVKGRFTISRDTAKNTVYLQMNSLKPEDTAVYYCNARGGARAWYFAYKYWGQGTQVTVSS	high polyreactivity
QVQLVESGGGLVQAGGSLRLSCAATRSIFSLYTMGWYRQAPGKERELVAVISSAGRTYYADSVKGRFTISRDNGKNTVYLQMNSLKPEDTAVYYCARLTGQRTQTRSDYWGQGTQVTVSS	high polyreactivity
QVQLVESGGGLVQAGGSLRLSCAAYGFTFTRKAMGWYRQAPGKERELVAAISGSGGSTYYADSVKGRYTISRDNAKNTVYLQMNSLKPADTAVYYCAKDGWWRKYDYWGQGTQVTVSS	high polyreactivity
QVQLVESGGGLVQAGGSLRLSCAAYGFTIRRYAMGWSIQAPGKERELVAAITWSAGSTYYADSVKGRFTISRDNAKYTVYLQMNSLKPEDTAVYYCAARCKRWGADSGYYWGNGTQVTVSS	high polyreactivity
QVQLVESGGGLVQAGGSLRLSCAAYGGIFKQYALGCYRQAPGKERELVAANTWSGGSTYYADSVKGRFTISRDNAKNTVYLQMNSLKPEDTAVYYCAKDYVLFQYVDFQDDDYWGQGTQVTVSS	low polyreactivity
QVQLVESGGGLVQAGGSLRLSCAAYGHIFFYYTMGWYRQAPGKERELVAAITIGGSTNYADSVKGRFTISRDYAKNTVYLQMNSLKPEDTAVYYCNVVKYVYIYSYWEYYYWGHGTQVTVSS	low polyreactivity
QVQLVESGGGLVQAGGSLRLSCAAYGITFGANAMGWYRQAPGKERELVADITWSGGDTYYADSVKGRFTISRDNAKYTVYLQMTSLIPEDTAVYYCNALQPGLGSPLGEYDFWGQGTQVTVSS	low polyreactivity
QVQLVESGGGLVQAGGSLRLSCAAYGITFTPNAMGWYRQAPGKEREFVAAITYSGGSTYYADSVKGRFTISRDNAKNTVYLQMNSLKPEDTAVYYCAAVYYLLYYEAYYYWGQGTQVTVSS	low polyreactivity
QVQLVESGGGLVQAGGSLRLSCAAYGLIFAISAMGWYRQAPGKERELVAAIRWSGASTYADSVKGRFTISRDNAKNTVYLQMNSLKTEDTAVYYCAADDLLHYDYWGQGTQVTVSS	low polyreactivity
QVQLVESGGGLVQAGGSLRLSCAAYGLIFGHYAMGWYRQEPGKERELVAAITTRGSSTYYADSVKGRFTISRDNAKNTVYLQMNSLKPEDTAVYYCNAKLVYGTTYKFDNWGQGTQVTVSS	high polyreactivity
QVQLVESGGGLVQAGGSLRLSCAAYGLTFYGNAMGWYRQAPGKERELVAAISRGGRTYYADSVKGRFTISRDNAKKTVYLQRNSLKPEDTAVYYCATVVSRVKQPFDMDYWGQGTQVTVSA	low polyreactivity
QVQLVESGGGLVQAGGSLRLSCAAYGLTFYHYTMGWYRQAPGKERELVAAISSSGVTTYYADSVKGRFTISRDNAKNTVYLQMNSLKPEDTAVYYCAAVWYPDRVQPENGTTDSPGDYWGQGTQVTVSS	low polyreactivity
QVQLVESGGGLVQAGGSLRLSCAAYGNTLDVNAMGWYRQAPGKERELVPAITSGGSTNYADSVKGRFTISRDNAKNTVYLQMNSLKPEDTAVYYCAKGSGVTYVTETLNTDYGYWGQGTQVTVSS	low polyreactivity
QVQLVESGGGLVQAGGSLRLSCAAYGRIFDAYAMGWYRQAPGKERELVAAITQSGGSTFYADSVKGRFTNSRDNAKNTVYLQMNSLKPEDTAVYDSNTGLSGRRYGFGVSFGMDYWGQGTQVTVSS	low polyreactivity
